Results as given in patent US20250026841A1.

B1: anti-p95HER2 antibody clone R4-5 (antibody, human IgG1, kappa, V domains shown)
VH: QITLKESGPALVKPTQTLTLTCTFSGFSLSTSGVGVGWIRQPPGKALEWLALIYWDDDKRYSPSLKSRLTITKDTSKNQVVLTMTNMDPVDTATYYCAHSRLPYNSHGYWGQGTTVTVSS
VL: DIQMTQSPSSLSASVGDRVTITCQASQAIGNYLSWYQQKPGRAPKLLIYAASTLHSGVPSRFSGSGSGTDFTLTITSLQPDDFATYYCQQSYSVPVTFGLGTKLEIKR
B2: anti-p95HER2 antibody clone R4-15 (antibody, human IgG1, V domains shown)
VH: QITLKESGPTLVKPTQTLTLTCTFSGFSLSSGGVGVGWIRQPPGKALEWLALIYWDDDKRYSPSLKSRLTITKDTSKKQVVLTMTNMDPVDTATYYCAHLDYPENYFDQWGQGTLVTVSS
VL: DIQMTQSPSSLSASVGDRVTFTCRASQSISTYLNWYQQKPGKAPKLLIYAASTLQSGVPSRFSGSGSGTDFTLAISSLQPEDFATYFCQQSYSFPTFGQGTRLEIKR

Molecular target: p95HER2 expressed on cells (p95HER2-HEK293, p95HER2-expressing NCI-H292) (human) (UniProt P04626)
Experiment: flow cytometry on p95HER2-expressing NCI-H292 cells, ug/mL is the unit of the x axis

| Binder | EC50 [µg/mL] |
| --- | --- |
| B1 | 0.399 |
| B2 | 0.0659 |
